# Laboratory results published in paper PMC7531512.
# Target: biotinylated human neonatal Fc receptor (FcRn) (human) (UniProt P55899)
# Assay: BLI
row,Substance,Kd [µM]
1,"AlbuCORE_2 scaffold (split human serum albumin, split site 300-301) (complex)",0.58
2,"AlbuCORE_3 scaffold (split human serum albumin, split site 364-365) (complex)",0.76
3,"AlbuCORE_6 scaffold (split human serum albumin, deletion of residue 84) (complex)",1.6
4,"AlbuCORE_7 scaffold (split human serum albumin, split site 171-172) (complex)",1.65

# Further substances by falling Kd, results first:
row,Kd [µM],Substance
1,1.25,"AlbuCORE_9 scaffold (split human serum albumin, split site 281-282) (complex)"
2,0.98,"AlbuCORE_4 scaffold (split human serum albumin, split site 441-442) (complex)"
3,0.19,"AlbuCORE_1 scaffold (split human serum albumin, split site 339-340) (complex)"
